First the molecules themselves.
B1: AfPOD (Alcaligenes faecalis) (protein)
chain: MDTPLRDKSYFDERATKEMATHLQQVQRDTRETMAFACRILAMTEQEAGLAGQISVRSERPGAYWTLRFGLGFDEATPEDFIEVDRDLNTLSGEGMANPATRFHLWVYEARPDVNSIIHTHSPWATVLATARQPLVISQMDMTPLHNDCAFLGEWPGVPIADQEGVIISKALGDKRAIILAHHGYLTAGKSCQEATYLSVYLERAARLQVRAQAAFGPLTPVDDTLAAEAHDYLLKPSIVNATFDYWSRQTQGIAPLTKTR

The subject of the first series is T1, CC(=NO)C(=O)O.
T1 construct: full length, 261 residues (Met1-Arg261); recombinant in E. coli; variants with C-terminal His6-tag, WT by two untagged chromatographic steps; homotetramer, Fe(II)-dependent
The experiment in a line: nitrite production, diazo-coupling spectrophotometry. It counts as biochemical, Alcaligenes faecalis. As to conditions: 20 mM Tris-HCl pH 8.0, 1.0 mM sodium ascorbate, 100 µM FeSO4, O2 as co-substrate. The source says:
(§1) nitrite production, diazo-coupling spectrophotometry on AfPOD
Consider AfPOD (Alcaligenes faecalis; K8E), for which the Km – broadly, the concentration of substrate that gives half-maximal velocity – is 68766 ± 20299 µM; the kcat (commonly the maximal rate divided by the concentration of active sites) stood at 0.632 ± 0.066 s⁻¹; the kcat/Km (usually the turnover number divided by the Michaelis constant) was found to be 9.2 M⁻¹ s⁻¹.
Taken in the same sequence, the figures for AfPOD (Alcaligenes faecalis; F103A) were 89 ± 22 µM, 0.008 ± 0.001 s⁻¹ and 90 M⁻¹ s⁻¹.
In the case of AfPOD (Alcaligenes faecalis; H104A), the Km is 170 ± 37 µM, the kcat is 0.21 ± 0.013 s⁻¹ and the kcat/Km was 1200 M⁻¹ s⁻¹.
As for AfPOD (Alcaligenes faecalis; E229K/K8E), the Km came out at 2538 ± 568 µM, the kcat came out at 1.76 ± 0.109 s⁻¹ and the kcat/Km is 690 M⁻¹ s⁻¹.
In the case of AfPOD (Alcaligenes faecalis; E229K), the Km is 2150 ± 172 µM, the kcat is 4.58 ± 0.098 s⁻¹ and the kcat/Km is 2100 M⁻¹ s⁻¹.
On to AfPOD (Alcaligenes faecalis; Y233A), for which the Km is 42247 ± 16705 µM, the kcat came to 0.012 ± 0.001 s⁻¹ and the kcat/Km came to 0.3 M⁻¹ s⁻¹.
Taken in the same sequence, the figures for AfPOD (Alcaligenes faecalis; E164A) were 943 ± 240 µM, 0.27 ± 0.02 s⁻¹ and 290 M⁻¹ s⁻¹.
For AfPOD (Alcaligenes faecalis; F69A), in that order: 41509 ± 9984 µM, 0.246 ± 0.018 s⁻¹ and 5.9 M⁻¹ s⁻¹.
In the case of AfPOD (Alcaligenes faecalis; Q53A), the Km came to 96 ± 18 µM, the kcat turned out to be 0.162 ± 0.008 s⁻¹ and the kcat/Km was found to be 1700 M⁻¹ s⁻¹.

Substrate in the next series: CC(=NO)C(=O)O
The series is described as above. Type of series: biochemical, Alcaligenes faecalis. The following applies: 20 mM Tris-HCl pH 8.0, 1.0 mM sodium ascorbate, 100 µM FeSO4, O2 as co-substrate.
Description: as §1
For B1, the Km turned out to be 622 ± 83 µM, the catalytic constant (kcat) stood at 4.8 ± 0.169 s⁻¹ and the kcat/Km is 7700 M⁻¹ s⁻¹.

The values above are taken from PMC11841055, “Structural characterization of pyruvic oxime dioxygenase, a key enzyme in heterotrophic nitrification” (Journal of Bacteriology, 2025).
